To fix the notation:
T1: recombinant human BCMA (ELISA antigen, construct not specified) (human, UniProt Q02223 1-54)
T1 construct: Fc 1-51; Fc/His 1-51; Fc 4-48) was coated in these ELISAs; also called recombinant BCMA; recombinant protein
T1 sequence: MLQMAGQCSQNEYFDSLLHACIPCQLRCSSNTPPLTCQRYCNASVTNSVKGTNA

T2: human monomeric BCMA antigen (human, UniProt Q02223 5-54, limits assumed)
T2 construct: also called recombinant human BCMA antigens
T2 chain: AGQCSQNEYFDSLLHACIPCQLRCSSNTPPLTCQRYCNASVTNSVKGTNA

T3: human BCMA-Fc/His (1-51) (human, UniProt Q02223 1-51)
T3 construct: also called recombinant human BCMA-Fc/His; recombinant human BCMA-His (Sino Biological Inc.); not shown: Fc region; C-terminal His tag
T3 sequence: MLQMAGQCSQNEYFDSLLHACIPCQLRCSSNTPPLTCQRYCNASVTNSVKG

T4: human BCMA expressed on cell surface (H929, OPM-2, CHOK1-hBCMA cells) (human, UniProt Q02223 1-184)
T4 construct: also called cell-surface BCMA; BCMA on cell surface
T4 sequence: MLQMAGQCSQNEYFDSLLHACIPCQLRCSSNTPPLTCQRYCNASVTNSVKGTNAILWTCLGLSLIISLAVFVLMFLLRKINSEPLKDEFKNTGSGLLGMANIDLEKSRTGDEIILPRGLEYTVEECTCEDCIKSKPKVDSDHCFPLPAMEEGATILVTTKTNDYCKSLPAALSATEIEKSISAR

B1: mutant antibody 5D5 LM4 (antibody, V domains shown)
VH: EVQLLESGGGLVQPGGSLRLSCAASGFTFSDYGLSWVRQAPGKGLEWVSLIDSSGSSTFYADSVKGRFTISRDNSKNTLYLQMNSLRAEDTAVYYCAKEHGLFDSWGQGTLVTVSS
VL: EIVLTQSPGTLSLSPGERATLSCKASQDIDDAINWYQQKPGQAPRLLIYDASLRATGIPDRFSGSGSGTDFTLTISRLEPEDFAVYYCQQSLRTPITFGQGTKLEIKR
notes: Light chain CDR mutant of 5D5 (IgG1); heavy chain as 5D5
B2: mutant antibody 5D5 LM5 (antibody, V domains shown)
VH: B1 VH
VL: B1 VL with A32E
notes: as for B1
B3: mutant antibody 5D5 LM2 (antibody, V domains shown)
VH: B1 VH
VL: B1 VL with D31E, A32D
notes: as for B1
B4: mutant antibody 5D5 LM1 (antibody, V domains shown)
VH: B1 VH
VL: B1 VL with D31N, A32D
notes: as for B1
B5: mutant antibody 5D5 LM3 (antibody, V domains shown)
VH: B1 VH
VL: B1 VL with D31A, A32D
notes: as for B1
B6: mutant antibody 5A6 LM6 (antibody, V domains shown)
VH: EVQLLESGGGLVQPGGSLRLSCAASGFTFSNYGVHWVRQAPGKGLEWVSYISYSGGTYYNPSLKSRFTISRDNSKNTLYLQMNSLRAEDTAVYYCARDSDDFGFDYWGQGTLVTVSS
VL: QSVLTQPPSASGTPGQRVTISCQGESLRSYYVNWYQQLPGTAPKLLIYDHSKRPTGVPDRFSGSKSGTSASLAISGLRSEDEADYYCQSYDASTVVFGGGTKLTVLG
notes: Light chain CDR mutant of 5A6 (IgG1); heavy chain as 5A6
B7: mutant antibody 5A6 LM3 (antibody, V domains shown)
VH: B6 VH
VL: B6 VL with E25D, D91E, A92S
notes: as for B6
B8: mutant antibody 5A6 LM2 (antibody, V domains shown)
VH: B6 VH
VL: B6 VL with E25D, S26A, A92S
notes: as for B6
B9: mutant antibody 5A6 LM8 (antibody, V domains shown)
VH: B6 VH
VL: B6 VL with E25D, S26A
notes: as for B6
B10: mutant antibody 5A6 LM4 (antibody, V domains shown)
VH: B6 VH
VL: B6 VL with E25D
notes: as for B6
B11: mutant antibody 5A6 LM1 (antibody, V domains shown)
VH: B6 VH
VL: B6 VL with A92S
notes: as for B6
B12: mutant antibody 5A6 LM7 (antibody, V domains shown)
VH: B6 VH
VL: B6 VL with E25D, S26A, D91E, A92S
notes: as for B6
B13: mutant antibody 5A6 LM5 (antibody, V domains shown)
VH: B6 VH
VL: B6 VL with D91E, A92S
notes: as for B6
B14: anti-BCMA IgG antibody 2F8 (antibody, V domains shown)
VH: EVQLLESGGGLVQPGGSLRLSCAASGFTFSNYGMSWVRQAPGKGLEWVSEIIPIFDTSNYAQKFQGRFTISRDNSKNTLYLQMNSLRAEDTAVYYCAKIPGNRHDYWGQGTLVTVSS
VL: QSVLTQPPSASGTPGQRVTISCTRMQRQSDWYQQLPGTAPKLLIYDNNKRPLGVPDRFSGSKSGTSASLAISGLRSEDEADYYCQSYDSNAYVVFGGGTKLTVLG
B15: anti-BCMA IgG antibody 5C3 (antibody, V domains shown)
VH: EVQLLESGGGLVQPGGSLRLSCAASGFTFSDYYIHWVRQAPGKGLEWVSAISGSGGSTYYADSVKGRFTISRDNSKNTLYLQMNSLRAEDTAVYYCASDLGDTTFDSWGQGTLVTVSS
VL: EIVLTQSPGTLSLSPGERATLSCQASDDISNYLNWYQQKPGQAPRLLIYGVSNRASGIPDRFSGSGSGTDFTLTISRLEPEDFAVYYCQQSYSTPPITFGQGTKLEIKR
B16: anti-BCMA IgG antibody 4H9 (antibody, V domains shown)
VH: EVQLLESGGGLVQPGGSLRLSCAASGFTFSGYSMSWVRQAPGKGLEWVSSIYHTGYTYYNPSLKSRFTISRDNSKNTLYLQMNSLRAEDTAVYYCARYKSGAFDIWGQGTLVTVSS
VL: EIVLTQSPGTLSLSPGERATLSCRASQSVSRNLAWYQQKPGQAPRLLIYGVSSRATGIPDRFSGSGSGTDFTLTISRLEPEDFAVYYCQQYGSSPPTFGQGTKVEIKR
B17: anti-BCMA IgG antibody 2C6 (antibody, V domains shown)
VH: EVQLLESGGGLVQPGGSLRLSCAASGFTFSNYGMSWVRQAPGKGLEWVSSIDYNGSTYYNPSLKSRFTISRDNSKNTLYLQMNSLRAEDTAVYYCAKEHGLFDSWGQGTLVTVSS
VL: EIVLTQSPGTLSLSPGERATLSCRVSQSISSYLNWYQQKPGQAPRLLIYDASTRAIGIPDRFSGSGSGTDFTLTISRLEPEDFAVYYCQQVNSYPITFGQGTKVEIKR

These results are taken from patent US20210284749A1 (ABL BIO, published 2021).

Numbering of substitutions follows the chain as printed.

The target in the first experiment is T1, recombinant human BCMA (ELISA antigen, …). The experiment is described as follows: ELISA on recombinant BCMA. (In an ELISA, binding on a coated surface is turned into a signal by an enzyme label.)
As a reminder, the EC50 is the concentration at which the effect is half-maximal. For B1, the EC50 turned out to be 0.0708 nM.
Still for that read-out and setting: then B2, with 0.0763 nM; and B3, with 0.0858 nM; and B4, with 0.0939 nM.
On the same count and under the same terms, then B5, with 0.0593 nM; and B6, with 0.0537 nM.
The same measure, in the same setting: the value for B7 was 0.133 nM.
In the case of B8, the EC50 was determined as 0.0509 nM.
Turning to B9, the EC50 came to 0.068 nM.
On the same count and under the same terms, then B10, with 0.0823 nM; and B11, with 0.0818 nM; and B12, with 0.105 nM.
On the same count and under the same terms, then B13, with 0.103 nM.

The target of a further experiment is T2, human monomeric BCMA antigen. Kind of experiment: SPR (Biacore T200), antibody captured on protein A chip, antigen 6.25-100 nM. As for the experimental part:
In particular, the prepared antibodies were diluted with a 1×HPS-EP buffer (GE Healthcare, BR-1006-69). The target antigen-binding affinity analysis was performed using a Biacore T200 (GE Healthcare). The antibodies were flowed onto a protein A chip at a contact time of 60 seconds, a stabilization time of 30 seconds, and a flow rate of 30 μl/min until a capture level reached 128 RU (Response Unit), thereby preparing an antibody-captured protein A chip.
The antigen was sequentially diluted with a 1×HPS-EP buffer, by 2-fold each time, from 100 nM to 6.25 nM, thereby preparing a total of […] samples. The 1×HPS-EP buffer was used as a negative control group (blank).
The prepared antigen was flowed across the antibody-captured protein A chip at a flow rate of 30 μl/min for an association time of 60 seconds, followed by a disassociation phase for 180 seconds. Regeneration was performed with a 10-mM Glycine-HCL (pH 1.5) buffer (GE Healthcare, BR-1003-54) at a flow rate of 30 μl/min for a contact time of 30 seconds.
(In SPR one partner is held on a chip, and binding of the other changes the refractive index at the surface.)
Broadly, the Kd is the concentration at which binding is half-saturated. Lower therefore signals tighter binding. As usually defined, the koff is the rate constant with which the complex falls apart. The low end stands for slow dissociation, the high end for fast dissociation. What is called kon is a measure of how fast the partners come together. High values mean fast association, low ones slow association. For the molecule B1, the dissociation constant (Kd) is 14.2 nM, the dissociation rate constant (koff) came out at 0.0594 s⁻¹ and the association rate constant (kon) came to 4.17e+06 M⁻¹ s⁻¹.
Turning to B6, the dissociation constant Kd amounted to 18.1 nM, the koff is 0.00922 s⁻¹ and the on-rate constant (kon) came to 509000 M⁻¹ s⁻¹.

For the next experiment, the target named is T1, recombinant human BCMA (ELISA antigen, …). The experiment is described as follows: ELISA on coated recombinant human BCMA, antibody titrated, HRP anti-Fab detection, absorbance 450 nm. As for the experimental part:
Specific binding abilities of the anti-BCMA IgG antibodies isolated in Example 1.4 to recombinant BCMA protein were analyzed by ELISA.
Using recombinant human BCMA or monkey BCMA as an antigen, and HRP-conjugated Fab polychronal antibody reagent (Pierce, 31414) as a secondary antibody, ELISA was performed as described in Example 1.3.
Usually EC50 (read off the curve) stands for the midpoint of the concentration-response curve. In the case of B14, the “EC50 (read off the curve)” value is about 0.07 µg/mL.
With B15, the half-maximal effective concentration (EC50 (read off the curve)) is about 0.9 µg/mL.
With B16, the “EC50 (read off the curve)” value was about 0.01 µg/mL.
With B17, the “EC50 (read off the curve)” value was about 0.05 µg/mL.

The target in the next experiment is T3, human BCMA-Fc/His (1-51). The experiment is described as follows: BLI (Octet), antigen on Ni-NTA biosensor, IgG in solution. As for the experimental part: A 96-well black microplate was mounted on a Biosensor tray case, 200 μl of 1XKB was added to each of the 8 wells, and then 8 Ni-NTA biosensors (Fortebio) were inserted thereto for hydration for 10 minutes. For antigen fixation, 5 μg/ml of recombinant human BCMA-His (Sino Biological Inc.) was diluted using 1XKB. Experiments were performed with a threshold of 0.5 to 1.0 nm, and Octet Data Acquisition 9.0 software was activated to create an Octet program template. The first step was for Baseline 1, the second step was for loading, and the threshold was fixed to 0.5 to 1.0 nm. In the third step, which was for Baseline 2, association for 5 minutes and dissociation for 20 minutes were performed. A plate temperature was fixed to 30° C., and the prepared buffer solution was placed in order into a new 96-well black microplate according to the Octet program template. 200 μl of 1XKB used as Baseline 1 and recombinant human BCMA-Fc/His which is an antigen to be loaded were diluted to 5 μg/ml, and 200 μl of the dilution was added thereto. After adding 200 μl of 1XKB used as Baseline 2, 200 μl of the antibody to be reacted with the antigen was dispensed, and the instrument was operated. After completion of the experiment, an association constant (kon), a dissociation constant (kdis), and an equilibrium dissociation constant (KD) for each antibody were analyzed and calculated with Octet Analysis 9.0 software.
For orientation: In BLI a coated tip is dipped into the sample, and binding shifts an interference pattern.
Molecule B14 displayed a Kd of 104 nM, a dissociation rate constant (koff) of 0.0152 s⁻¹ and a kon of 147000 M⁻¹ s⁻¹.
As for B15, binding was characterised by a dissociation constant (Kd) of 16.4 nM, the koff turned out to be 0.00966 s⁻¹ and the kon was determined as 591000 M⁻¹ s⁻¹.
Taken in the same sequence, the figures for B16 were 1.29 nM, 0.00179 s⁻¹ and 1.38e+06 M⁻¹ s⁻¹.
For B17, the Kd came out at 0.37 nM, the koff is 0.000403 s⁻¹ and the on-rate (kon) is 1.09e+06 M⁻¹ s⁻¹.

The target in the next experiment is T4, human BCMA expressed on cell surface …. Kind of experiment: FACS on H929 cells.
In turn, B1 showed an MFI of 62.3.
The same measure, in the same setting: the value for B2 was 73.6; that for B3 was 29; that for B4 was 32.
Regarding B5, the MFI amounted to 31.5.
The same measure, in the same setting: then B6, with 78.9; and B7, with 84.6; and B8, with 66.7.
Turning to B9, the MFI was 68.6.
Molecule B10 gave an MFI of 77.1.
The same measure, in the same setting: the value for B11 was 83.4; that for B12 was 71.1.
On the same count and under the same terms, the value for B13 was 81.4.
